{"source": "patent US20250101096A1", "about": "(SERA PROGNOSTICS, published 2025)", "binders": {"B1": {"name": "anti-IBP4 antibody 1H9.B6 (antibody, mouse IgG1, kappa, V domains shown)", "VH": "EVQLQQSGPELVKPGASVKISCKTSGYTFTDYYMNWVKQSHGKSLEWIGDINPNNGGAGYNQKFKGKATLTVDKSSSTAYMELRSLTSEDSAVYYCARWGWDRYFDYWGQGTTLTVSS", "VL": "DIVMTQSQKFMSTSVGDRVSVTCKASQNVGIDVAWYQQKPGQSPKALIYSASYRSSGVPDRFTGSGSGTDFTLTINNVQSEDLAEYFCQQYNSYPLAFGSGTKLEIKR", "notes": "Mouse hybridoma mAb raised against FL IBP4; also called IBP4-1H9.B6"}, "B2": {"name": "anti-IBP4 antibody 5C11.A7 (antibody, mouse IgG1, kappa, V domains shown)", "VH": "QVQLQQSGAELVRPGASVTLSCKASGYTFTDYEMHWVRQTPVHGLEWIGAIDTETGGPAYNQKFKGKAILTADKSSSTAYMELRSLTSEDSAVYFCTRARGSRSVYYFDNWGQGTTLTVSS", "VL": "B1 VL with I31T, D32N, Q42H, A46V, S55H, N76G, E85D, N92D, S93T, A97T", "notes": "Mouse hybridoma mAb raised against FL IBP4; also called IBP4-5C11.A7"}, "B3": {"name": "anti-IBP4 antibody 7G11.H4 (antibody, mouse IgG1, kappa, V domains shown)", "VH": "B2 VH", "VL": "DIVMTQSQKFMSTSVGDRVSVTCKASQNVDTNIAWYQQKPGHSPKALIYSASYRYSGVPDRFTGSGSGTDFTLTIGNVQSEDLADYFCQQYDTYPLTFGSGTKLEIKR", "notes": "Mouse hybridoma mAb raised against FL IBP4; also called IBP4-7G11.H4"}, "B4": {"name": "anti-IBP4 antibody 5B3.G9 (antibody, mouse IgG1, kappa)", "heavy": "EVQLQQSGPELVKPGASAKISCKASGYTFTDYYMNWVKQSHGKSLEWIGDINPNNGGSAYNQKFKGKATLTVDKSSSTAYMELRSLTSEDSAVYYCARWDGGFDYWGQGTTLTVSSAKTTPPSVYPLAPGSAAQTNSMVTLGCLVKGYFPEPVTVTWNSGSLSSGVHTFPAVLQSDLYTLSSSVTVPSSTWPSQTVTCNVAHPASSTKVDKKIVPRDCGCKPCICTVPEVSSVFIFPPKPKDVLTITLTPKVTCVVVDISKDDPEVQFSWFVDDVEVHTAQTKPREEQINSTFRSVSELPIMHQDWLNGKEFKCRVNSAAFPAPIEKTISKTKGRPKAPQVYTIPPPKEQMAKDKVSLTCMITNFFPEDITVEWQWNGQPAENYKNTQPIMDTDGSYFVYSKLNVQKSNWEAGNTFTCSVLHEGLHNHHTEKSLSHSPGK", "light": "DIVMTQSQKFMSTSVRDRVSVTCKASQNVGTNVAWYQQKPGQSPKALIYSASYRYSGVPDRFTGSGSGTAFTLTISNVQSEDLAEYFCQQYNIYPLTFGAGTKLELKRADAAPTVSIFPPSSEQLTSGGASVVCFLNNFYPRDINVKWKIDGSERQNGVLNSWTDQDSKDSTYSMSSTLTLTKDEYERHNSYTCEATHKTSTSPIVKSFNRNECK"}, "B5": {"name": "1 (peptide)", "peptide": "LRPVLPTQSAHDPP", "notes": "SHBG peptide of pool 1+2+3; also called peptide 1; Individual Peptide 1"}}, "key": {"[1]": {"molecular_target": "T1, human insulin-like growth factor binding protein 4 (IBP4) (human, UniProt P22692 22-258)", "T1 construct": "also called IBP4 protein; IGFBP4", "T1 sequence": "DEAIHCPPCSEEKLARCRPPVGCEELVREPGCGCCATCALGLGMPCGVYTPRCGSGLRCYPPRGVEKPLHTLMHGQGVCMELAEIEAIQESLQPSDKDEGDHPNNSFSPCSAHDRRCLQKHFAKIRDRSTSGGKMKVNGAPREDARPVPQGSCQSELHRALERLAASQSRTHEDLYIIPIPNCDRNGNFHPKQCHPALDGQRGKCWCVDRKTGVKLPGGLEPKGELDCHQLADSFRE", "test": "AC-MS, mAb on M-PVA beads, QC2 serum, round 3 (beads reused)"}, "[2]": {"molecular_target": "T1, human insulin-like growth factor …", "test": "SPR, format and IBP4 form not stated"}, "[3]": {"molecular_target": "T1, human insulin-like growth factor …", "test": "AC-MS, mAb on M-PVA beads, pooled pregnant serum, peptide …", "excerpt": "(§1) Anti-IBP4 antibody evaluation and selection. A total of 8 hybridoma clones (1H9.B6, 5C11.A7, 7G11.H4, 3D4.E9, 1G3.A3, 8G4.G11, 5F10.B2, and 3D8.A11) were produced according to the “additional production of anti-IBP4 antibodies” methods disclosed in Example 1 and screened by AC-MS, shown in Table 10 below. Monoclonal antibodies from these clones purified by protein-G affinity chromatography were covalently coupled to M-PVA magnetic beads and used in AC-MS experiments using pooled pregnant serum. The 5B3.G9 anti-IBP4 antibody clone was included in this analysis for comparison to the performance of the additional IBP4 antibodies, as shown and italicized in Table 10 below. Table 10 includes a summary of the additional antibodies Response Ratios and shared epitope binding results as determined by the competitive binding assays of Example 3."}, "[4]": {"molecular_target": "T1, human insulin-like growth factor …", "test": "AC-MS, 10 ul QC2 serum, M-PVA beads coupled at 400 ug/ml mAb", "excerpt": "(§2) AC-MS performance at reduced IBP4 antibody coupling density. IBP4 antibodies were coupled to M-PVA beads at concentrations of […] in the coupling reaction to test the performance of M-PVA beads with reduced density of coupled antibody. Comparison of the IBP4 response ratios obtained in AC-MS experiments with M-PVA beads with a low density of coupled mAb should reveal differences in the apparent affinity of the antibodies to IBP4 protein.\n(§3) M-PVA beads coupled to IBP4 mAbs 1H9.B6, 5C11.A7, 7G11.H4 or 5B3.G9 at each concentration were used in AC-MS experiments with 10 μl of QC2 serum."}, "[5]": {"molecular_target": "T1, human insulin-like growth factor …", "test": "AC-MS, mAb on M-PVA beads, pooled pregnant serum", "excerpt": "as §1"}, "[6]": {"molecular_target": "T1, human insulin-like growth factor …", "test": "AC-MS, mAb on M-PVA beads, QC2 serum, round 2 (beads reused)"}, "[7]": {"molecular_target": "T1, human insulin-like growth factor …", "test": "AC-MS, 10 ul QC2 serum, M-PVA beads coupled at 100 ug/ml mAb", "excerpt": "as §2, §3"}, "[8]": {"molecular_target": "T1, human insulin-like growth factor …", "test": "AC-MS, 10 ul QC2 serum, M-PVA beads coupled at 25 ug/ml mAb", "excerpt": "as §2, §3"}, "[9]": {"molecular_target": "T1, human insulin-like growth factor …", "test": "AC-MS, 10 ul QC2 serum, M-PVA beads at reduced mAb coupling density", "excerpt": "as §2, §3"}, "[10]": {"molecular_target": "T1, human insulin-like growth factor …", "test": "AC-MS, mAb on M-PVA beads, QC2 serum, round 1"}, "[11]": {"molecular_target": "T2, anti-SHBG antibody clone variant 13C9.E5", "T2 construct": "Mouse monoclonal; variant form; also called SHBG (13C9.E5) Anti SHBG v2; SHBG #16", "T2 sequence (VH, as listed by the source)": "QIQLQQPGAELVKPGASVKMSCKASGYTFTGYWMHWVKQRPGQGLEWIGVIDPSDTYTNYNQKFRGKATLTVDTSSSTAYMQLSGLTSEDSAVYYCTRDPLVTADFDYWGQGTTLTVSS", "test": "ECLIA, single peptide competes with SHBG for the antibody"}, "[12]": {"molecular_target": "C4 Pos Control #4", "test": "ECLIA, single peptide competes with SHBG for the antibody"}, "[13]": {"molecular_target": "T3, anti-SHBG antibody clone variant 4G10.F8", "T3 construct": "Mouse monoclonal; variant form expressed from a standard backbone in CHO cells; also called SHBG (4G10.F8) Anti SHBG v1; SHBG #6", "T3 sequence (heavy, as listed by the source, chain 1 of 2)": "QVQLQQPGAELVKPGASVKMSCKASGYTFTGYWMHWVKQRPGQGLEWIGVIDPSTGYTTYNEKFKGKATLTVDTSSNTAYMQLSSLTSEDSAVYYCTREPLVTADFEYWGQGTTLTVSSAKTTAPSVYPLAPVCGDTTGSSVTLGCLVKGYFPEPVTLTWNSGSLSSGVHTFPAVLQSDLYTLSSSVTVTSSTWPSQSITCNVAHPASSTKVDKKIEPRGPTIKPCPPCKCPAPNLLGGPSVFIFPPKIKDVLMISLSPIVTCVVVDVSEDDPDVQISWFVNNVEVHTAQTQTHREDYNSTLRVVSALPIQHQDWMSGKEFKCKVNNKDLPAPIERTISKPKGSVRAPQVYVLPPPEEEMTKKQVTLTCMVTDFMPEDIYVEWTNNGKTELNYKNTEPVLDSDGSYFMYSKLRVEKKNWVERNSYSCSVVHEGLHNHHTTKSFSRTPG", "T3 sequence (light, as listed by the source, chain 2 of 2)": "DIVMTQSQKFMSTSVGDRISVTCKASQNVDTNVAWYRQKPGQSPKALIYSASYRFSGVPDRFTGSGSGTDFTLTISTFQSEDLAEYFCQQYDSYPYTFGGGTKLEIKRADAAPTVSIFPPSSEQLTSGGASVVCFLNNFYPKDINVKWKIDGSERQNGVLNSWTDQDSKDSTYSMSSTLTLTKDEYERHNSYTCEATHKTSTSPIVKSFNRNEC", "test": "ECLIA, single peptide competes with SHBG for the antibody"}}, "note": "Numbering of substitutions follows the chain as printed."}
{"binder": "B1", "values": [{"measurement": "ave RR", "setting": "[1]", "value": 0.62}, {"measurement": "Kd", "setting": "[2]", "value": 1.5, "unit": "nM"}, {"measurement": "koff", "setting": "[2]", "value": 0.0009, "unit": "s⁻¹"}, {"measurement": "kon", "setting": "[2]", "value": 600000, "unit": "M⁻¹ s⁻¹"}, {"measurement": "t1/2", "setting": "[2]", "value": 12.8, "unit": "min"}, {"measurement": "Response Ratio", "setting": "[3]", "value": 0.588}, {"measurement": "ave RR", "setting": "[4]", "value": 0.586}, {"measurement": "ave IBP4 AC-MS RR", "setting": "[5]", "value": 0.588}, {"measurement": "ave RR", "setting": "[6]", "value": 0.607}, {"measurement": "ave RR", "setting": "[7]", "value": 0.562}, {"measurement": "ave RR", "setting": "[8]", "value": 0.479}, {"measurement": "percentage of the IBP4 RR at 25 relative to 400 coupling density", "setting": "[9]", "value": 82, "unit": "%"}, {"measurement": "ave RR", "setting": "[10]", "value": 0.602}]}
{"binder": "B2", "values": [{"measurement": "ave RR", "setting": "[1]", "value": 0.619}, {"measurement": "Kd", "setting": "[2]", "value": 1.6, "unit": "nM"}, {"measurement": "koff", "setting": "[2]", "value": 0.00074, "unit": "s⁻¹"}, {"measurement": "kon", "setting": "[2]", "value": 450000, "unit": "M⁻¹ s⁻¹"}, {"measurement": "t1/2", "setting": "[2]", "value": 15.6, "unit": "min"}, {"measurement": "Response Ratio", "setting": "[3]", "value": 0.548}, {"measurement": "ave RR", "setting": "[4]", "value": 0.595}, {"measurement": "ave IBP4 AC-MS RR", "setting": "[5]", "value": 0.548}, {"measurement": "ave RR", "setting": "[6]", "value": 0.609}, {"measurement": "ave RR", "setting": "[7]", "value": 0.567}, {"measurement": "ave RR", "setting": "[8]", "value": 0.47}, {"measurement": "percentage of the IBP4 RR at 25 relative to 400 coupling density", "setting": "[9]", "value": 79, "unit": "%"}, {"measurement": "ave RR", "setting": "[10]", "value": 0.651}]}
{"binder": "B3", "values": [{"measurement": "ave RR", "setting": "[1]", "value": 0.547}, {"measurement": "Kd", "setting": "[2]", "value": 2.8, "unit": "nM"}, {"measurement": "koff", "setting": "[2]", "value": 0.00102, "unit": "s⁻¹"}, {"measurement": "kon", "setting": "[2]", "value": 370000, "unit": "M⁻¹ s⁻¹"}, {"measurement": "t1/2", "setting": "[2]", "value": 11.3, "unit": "min"}, {"measurement": "Response Ratio", "setting": "[3]", "value": 0.525}, {"measurement": "ave RR", "setting": "[4]", "value": 0.538}, {"measurement": "ave IBP4 AC-MS RR", "setting": "[5]", "value": 0.525}, {"measurement": "ave RR", "setting": "[6]", "value": 0.56}, {"measurement": "ave RR", "setting": "[7]", "value": 0.492}, {"measurement": "ave RR", "setting": "[8]", "value": 0.404}, {"measurement": "percentage of the IBP4 RR at 25 relative to 400 coupling density", "setting": "[9]", "value": 75, "unit": "%"}, {"measurement": "ave RR", "setting": "[10]", "value": 0.598}]}
{"binder": "B4", "values": [{"measurement": "ave RR", "setting": "[1]", "value": 0.462}, {"measurement": "Kd", "setting": "[2]", "value": 10, "unit": "nM"}, {"measurement": "koff", "setting": "[2]", "value": 0.0021, "unit": "s⁻¹"}, {"measurement": "kon", "setting": "[2]", "value": 200000, "unit": "M⁻¹ s⁻¹"}, {"measurement": "t1/2", "setting": "[2]", "value": 5.5, "unit": "min"}, {"measurement": "Response Ratio", "setting": "[3]", "value": 0.482}, {"measurement": "ave RR", "setting": "[4]", "value": 0.47}, {"measurement": "ave IBP4 AC-MS RR", "setting": "[5]", "value": 0.482}, {"measurement": "ave RR", "setting": "[6]", "value": 0.534}, {"measurement": "ave RR", "setting": "[7]", "value": 0.449}, {"measurement": "ave RR", "setting": "[8]", "value": 0.231}, {"measurement": "percentage of the IBP4 RR at 25 relative to 400 coupling density", "setting": "[9]", "value": 49, "unit": "%"}, {"measurement": "ave RR", "setting": "[10]", "value": 0.533}]}
{"binder": "B5", "values": [{"measurement": "% Unblocked Signal at 0.07 uMolar", "setting": "[11]", "value": 93.4, "unit": "%"}, {"measurement": "% Unblocked Signal at 0.27 uMolar", "setting": "[11]", "value": 89.6, "unit": "%"}, {"measurement": "% Unblocked Signal at 1.08 uMolar", "setting": "[11]", "value": 86.8, "unit": "%"}, {"measurement": "% Unblocked Signal at 0.07 uMolar", "setting": "[12]", "value": 93.3, "unit": "%"}, {"measurement": "% Unblocked Signal at 0.27 uMolar", "setting": "[12]", "value": 77.1, "unit": "%"}, {"measurement": "% Unblocked Signal at 1.08 uMolar", "setting": "[12]", "value": 66.3, "unit": "%"}, {"measurement": "% Unblocked Signal at 0.07 uMolar", "setting": "[13]", "value": 95.8, "unit": "%"}, {"measurement": "% Unblocked Signal at 0.27 uMolar", "setting": "[13]", "value": 83, "unit": "%"}, {"measurement": "% Unblocked Signal at 1.08 uMolar", "setting": "[13]", "value": 53.2, "unit": "%"}]}
